Measured values taken from publication PMC8588432, “Selection and Characterization of Vimentin-Binding Aptamer Motifs for Ovarian Cancer”.

Molecular target: vimentin (human, UniProt P08670 2-466)
Test: filter binding; Filter binding: 20 mM Tris, 150 mM NaCl, pH 8.0, 2 h, room temperature, 10 uL; flow cytometry: fixed IGROV cells, 22 C, 1 h; microscopy: 37 C, 1 h
Details: label: 5'-biotin; predicted stem-loop

Sequence of vimentin (P08670 2-466): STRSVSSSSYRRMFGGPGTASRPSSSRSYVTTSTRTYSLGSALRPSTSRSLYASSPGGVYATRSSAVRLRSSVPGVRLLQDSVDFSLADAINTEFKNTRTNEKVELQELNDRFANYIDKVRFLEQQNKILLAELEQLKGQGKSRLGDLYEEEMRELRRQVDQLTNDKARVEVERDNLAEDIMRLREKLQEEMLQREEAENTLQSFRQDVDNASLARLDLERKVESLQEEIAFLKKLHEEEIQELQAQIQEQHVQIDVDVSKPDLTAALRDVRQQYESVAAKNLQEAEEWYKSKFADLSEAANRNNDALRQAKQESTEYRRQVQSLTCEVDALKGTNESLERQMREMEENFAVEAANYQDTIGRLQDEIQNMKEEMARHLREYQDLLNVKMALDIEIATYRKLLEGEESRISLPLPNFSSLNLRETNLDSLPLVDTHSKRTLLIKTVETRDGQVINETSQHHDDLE

Binder	Kd
ACCTCTTCAAGAACATCCCTGTCACGGATCCTCTAGAGCA (XNA, monothioated phosphates 3' of adenines (shown in red, positions not in text)) [V3M2]	18.9 nM
TAGACCCAGCTGGTCCGGAAAATAAGATGTCACGGATCCTC (XNA, monothioated phosphates 3' of adenines (shown in red, positions not in text)) [V5M2]	47.4 nM
